Data reported in PMC12060060 (Investigative Ophthalmology & Visual Science, 2025).

Target: the molecule itself
Assay: dynamic light scattering

B1: Q147E deamidated αA-crystallin (recombinant human) (natural protein, UniProt P02489 1-173, looked up)
chain: MDVTIQHPWFKRTLGPFYPSRLFDQFFGEGLFEYDLLPFLSSTISPYYRQSLFRTVLDSGISEVRSDRDKFVIFLDVKHFSPEDLTVKVQDDFVEIHGKHNERQDDHGYISREFHRRYRLPSNVDQSALSCSLSADGMLTFCGPKIETGLDATHAERAIPVSREEKPTSAPSS
  binding result: binds
